Measured values reported in patent US9023343B2, “Phosphorylation-inhibiting agent or dephosphorylating agent for PTEN” (Miyazaki Prefecture, priority 2009, dated 2015).

Assays:
NDRG2 = molecular target: T1, NDRG2 (Homo sapiens, UniProt Q9UN36); details: read-out: IC50 for enzymatic activity of NDRG2; concentration of NDRG2 protein 25 ng/ul
T1 sequence (Q9UN36 1-357 isoform Q9UN36-2): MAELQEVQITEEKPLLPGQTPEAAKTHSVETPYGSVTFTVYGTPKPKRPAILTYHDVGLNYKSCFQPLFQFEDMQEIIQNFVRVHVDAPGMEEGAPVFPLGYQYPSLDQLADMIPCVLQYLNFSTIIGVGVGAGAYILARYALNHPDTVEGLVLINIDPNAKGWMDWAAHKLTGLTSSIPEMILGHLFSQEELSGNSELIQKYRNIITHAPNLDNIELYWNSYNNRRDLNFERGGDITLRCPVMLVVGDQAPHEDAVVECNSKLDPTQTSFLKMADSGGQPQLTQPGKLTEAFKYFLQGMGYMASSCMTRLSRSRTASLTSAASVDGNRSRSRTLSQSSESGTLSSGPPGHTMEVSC
Description: The GST-NDRG2 protein (10 ng to 250 ng) was added to a reaction solution (pH 5.0) consisting of 100 mM sodium acetate, 0.8 mM DTT, and 10 mM pNPP, and the mixture was allowed to react at 30° C. for 10 minutes. After addition of 500 μl of 5 M NaGH, the reaction was stopped and OD 410 nm of the absorption wavelength for pNP (p-Nitrophenol) was measured. A standard curve was prepared at a concentration of 0.2 to 1.6 nmol of pNP, and an enzyme activity was determined by converting the absorbance into the concentration of pNP.

PTEN = molecular target: T2, PTEN (Homo sapiens, UniProt P60484); assay: In vitro dephosphorylation of FLAG-PTEN purified from ATL cell line Su9T-01, Western blot; format: biochemical; details: 10 ng/ml FLAG-PTEN, 30° C., 30 minutes; phosphorylation-specific anti-PTEN antibodies
T2 construct: made in house; host or cells: ATL cell line Su9T-01, transfected with PTEN/pCMV26; purified on anti-FLAG M2 gel
T2 sequence (P60484 whole entry): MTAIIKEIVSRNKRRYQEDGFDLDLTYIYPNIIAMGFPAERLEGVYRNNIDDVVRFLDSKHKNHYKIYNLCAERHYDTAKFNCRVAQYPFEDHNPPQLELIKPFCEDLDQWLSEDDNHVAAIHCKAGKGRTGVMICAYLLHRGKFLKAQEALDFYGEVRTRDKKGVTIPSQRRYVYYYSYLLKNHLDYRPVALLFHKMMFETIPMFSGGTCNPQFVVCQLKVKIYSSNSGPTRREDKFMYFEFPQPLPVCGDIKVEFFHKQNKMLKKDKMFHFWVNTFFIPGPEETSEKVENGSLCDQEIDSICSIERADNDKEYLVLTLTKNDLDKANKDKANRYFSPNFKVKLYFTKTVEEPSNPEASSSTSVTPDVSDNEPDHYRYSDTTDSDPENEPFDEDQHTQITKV
Description: ATL cell line Su9T-01 of 1×10^7 cells were transfected with 20 μg of PTEN/pCMV26 expression vector by electroporation. On day 2 after the transfection, the cells were collected and 500 μl of RIPA buffer solution was added to prepare a cell extract solution. […] The reaction solution was washed with PBS buffer solution, and eluted with 3×FLAG peptide (100 μg/ml).
A reaction solution composed of 25 ng of GST or GST-NDRG2 or one unit of bacterial alkaline phosphatase (BAP) (TAKARA) was reacted with a reaction solution consisting of 20 mM magnesium acetate, 300 μg/mL BSA, 30 μM EDTA, 0.03% β-mercaptoethanol, and 10 ng/ml FLAG-PTEN at 30° C. for 30 minutes. Phosphorylation state of PTEN was analyzed by the Western blot method using anti-PTEN antibodies specific to each phosphorylation.

[1] = pNPP (p-nitrophenyl phosphate) assay of phosphatase activity; format: biochemical; details: pH 5.0, 10 mM pNPP, 30° C., 10 minutes
Description: The GST-NDRG2 protein (10 ng to 250 ng) was added to a reaction solution (pH 5.0) consisting of 100 mM sodium acetate, 0.8 mM DTT, and 10 mM pNPP, and the mixture was allowed to react at 30° C. for 10 minutes. After addition of 500 μl of 5 M […], the reaction was stopped and OD 410 nm of the absorption wavelength for pNP (p-Nitrophenol) was measured. A standard curve was prepared at a concentration of 0.2 to 1.6 nmol of pNP, and an enzyme activity was determined by converting the absorbance into the concentration of pNP.

[F-].[Na+] [sodium fluoride]
IC50 (NDRG2): 383 nM

BAP: bacterial alkaline phosphatase (TAKARA), positive control
dephosphorylation of PTEN (PTEN): dephosphorylation effects were recognized

GST: Glutathione S-Transferase protein, negative control
dephosphorylation of PTEN (PTEN): not recognized
production of pNP (phosphatase activity) [1]: not observed
